According to patent publication US20210395718A1, “NOVEL KETOSE 3-EPIMERASE” (NATIONAL UNIVERSITY CORPORATION KAGAWA UNIVERSITY, priority 2018, published 2021):

Experiments:
[1] = Thermal stability: residual activity after incubation at 60° C. for one hour; type: biochemical; conditions: crude recombinant enzyme; after incubation at 60° C. for 1 hour
Experimental: Thermal stability of the enzyme was investigated by measuring the activity of the enzyme after incubation at 60° C. for one hour and finding its relative activity supposing that the activity at 60° C. under the reaction conditions (10 minutes) used for determining the optimum temperature in the above 2 shown in Table 2 was 100. As heat treatment conditions, the crude enzyme solution, a buffer (50 mM tris-HCl, pH 7.5), and 2 mM MgCl2 were used to give a total amount of 200 p1 and after retaining at 60° C. for one hour, the reaction mixture was cooled for 10 minutes in ice water. The residual enzyme activity was then measured by the conventional method.
The activity of each of the present enzyme (crude recombinant enzyme) and the crude enzyme of the control enzyme after incubation at 60° C. for 1 hour was measured and a relative activity of it was determined supposing that the activity at 60° C. under the reaction conditions (10 minutes) for determining the optimum temperature in the above 2 shown in Table 2 is 100. The relative activity was used as a heat resistance index of the enzyme. As heat treatment conditions, the crude enzyme solution, a buffer (50 mM tris-HCl, pH 7.5), and 2 mM MgCl2 were used to give a total amount of 200 p1 and after retaining at 60° C. for one hour, the reaction mixture was cooled for 10 minutes in ice water. The residual enzyme activity was measured by the conventional method.

[2] = Ketose 3-epimerase activity ratio (T70/T50) at reaction temperature of 70° C. to 50° C.; type: biochemical; conditions: crude recombinant enzyme; ratio of activity at 70° C. to activity at 50° C., 10 min reaction
Experimental: An enzyme having higher heat resistance than an amino acid substitution-free wild type enzyme can be obtained by introducing mutation into the gene of the ketose 3-epimerase of the present invention and substituting the corresponding amino acid residue with another amino acid residue by a site-directed mutagenesis operation to prepare various amino acid-substituted mutants. The heat resistance is evaluated by two indices, that is, a ketose 3-epimerase activity ratio (T70/T50) at the reaction temperatures of 70° C. to 50° C. and a residual activity after incubation at 60° C. for one hour.
Heat resistance of the present enzyme (crude recombinant enzyme) and the crude enzyme of the control enzyme was investigated by measuring an activity at 70° C. and an activity at 50° C. under the reaction conditions (10 minutes) used for determining the optimum temperature in the above 2 shown in Table 2 and finding their ratio (T70/T50).

Row | Molecule | Residual activity (%) [1] [%] | T70/T50 [2]
1 | Ketose 3-epimerase mutant 18: amino acid-substituted mutant of SEQ ID NO: 1 (protein, Arthrobacter histidinolovorans) MKIGCHGLVWTGRFDAEGIRYSVQKTKEAGFDLIEFPLMDPFSFDVATAKSALAEHGLTASASLGLSEATDVSSEDPAIVKAGEELLNRALDVLAELGATEFCGVIYSAMKKYMEPATEQGLSNSKAAVGRVVDRAAGLGINVSLEVVNRYETNVLNTGRQALSYLSDVKRPNLGVHLDTYHMNIEESDMFSPVLDTAEALKYVHIGESHRGYLGTGSVDFDNFFKALGRIGYDGPVVFESFSSAVVAPDLSRMLGIWRNLWADNEELGAHANAFIRDKLTAIKTIELH | 72.1 | 1.85
2 | Ketose 3-epimerase mutant 25: amino acid-substituted mutant of SEQ ID NO: 1 (protein, Arthrobacter histidinolovorans) MKIGCHGLVWTGRFDAEGIRYSVQKTKEAGFDLIEFPLMDPFSFDVATAKSALAEHGLTASASLGLSEATDVSSEDPAIVKAGEELLNRALDVLAELGATDFCGVIYSAMKKYMEPATEQGLSNSKAAVGRVVDRAAGLGINVSLEVVNRYETNVLNTGRQALSYLSDVKRPNLGVHLDTYHMNIEESDMFSPVLDTAEALRYVHIGESHRGYLGTGSVDFDNFFKALGRIGYDGPVVFESFSSAVVAPDLSRMLGIWRNLWADNEELGAHANAFIRDKLTAIKTIELH | 51.4 | 1.66
3 | Ketose 3-epimerase mutant 28: amino acid-substituted mutant of SEQ ID NO: 1 (protein, Arthrobacter histidinolovorans) MKIGCHGLVWTGRFDAEGIRYSVQKTKEAGFDLIEFPLMDPFSFDVATAKSALAEHGLTASASLGLSEATDVSSEDPAIVKAGEELLNRALDVLAELGATEFCGVIYSAMKKYMEPATEQGLSNSKAAIGRVVDRAAGLGINVSLEVVNRYETNVLNTGRQALSYLSDVKRPNLGVHLDTYHMNIEESDMFSPVLDTAEVLKYVHIGESHRGYLGTGNVDFDNFFKALGRIGYDGPVVFESFSSAVVAPDLSRMLGIWRNLWADNEELGAHANAFIRDKLTAIKTIELH | 112.7 | 1.62
4 | Ketose 3-epimerase mutant 19: amino acid-substituted mutant of SEQ ID NO: 1 (protein, Arthrobacter histidinolovorans) MKIGCHGLVWTGRFDAEGIRYSVQKTKEAGFDLIEFPLMDPFSFDVATAKSALAEHGLSVSASLGLSEATDVSSEDPAIVKAGEELLNRALDVLAELGATDFCGVIYSAMKKYMEPATEQGLSNSKAAIGRVVDRAAGLGINVSLEVVNRYETNVLNTGRQALSYLSDVKRPNLGVHLDTYHMNIEESDMFSPVLDTAEVLKYVHIGESHRGYLGTGNVDFDNFFKALGRIGYDGPVVFESFSSAVVAPDLSRMLGIWRNLWADNEELGAHANAFIRDKLTAIKTIELH | 91.2 | 1.85
5 | Ketose 3-epimerase mutant 21: amino acid-substituted mutant of SEQ ID NO: 1 (protein, Arthrobacter histidinolovorans) MKIGCHGLVWTGRFDAEGIRYSVQKTKEAGFDLIEFPLMDPFSFDVATAKSALAEHGLSVSASLGLSEATDVSSEDPAIVKAGEELLNRALDVLAELGATEFCGVIYSAMKKYMEPATEQGLSNSKAAVGRVVDRAAGLGINVSLEVVNRYETNVLNTGRQALSYLSDVKRPNLGVHLDTYHMNIEESDMFSPVLDTAEALKYVHIGESHRGYLGTGSVDFDNFFKALGRIGYDGPVVFESFSSAVVAPDLSRMLGIWRNLWADNEELGAHANAFIRDKLTAIKTIELH | 59.4 | 1.70
6 | Ketose 3-epimerase mutant 22: amino acid-substituted mutant of SEQ ID NO: 1 (protein, Arthrobacter histidinolovorans) MKIGCHGLVWTGRFDAEGIRYSVQKTKEAGFDLIEFPLMDPFSFDVATAKSALAEHGLSVSASLGLSEATDVSSEDSAIVKAGEELLNRALDVVAELGATEFCGVIYSSMKKYMEPATEQGLSNSKAAIGRVVDRAAGLGINVALEVVNRYETNVLNTGRQALSYLQDVKRPNLGVHLDTYHMNIEESDMFSPVLDTAEVLKYVHIGESHRGYLGTGNVDFDNFFKALGRIGYDGPVVFESFSSAVVAPDLSRMLGIWRNLWADNEELGAHANAFIRDKLTAIKTIELH | 113.5 | 1.70
7 | Ketose 3-epimerase mutant 27: amino acid-substituted mutant of SEQ ID NO: 1 (protein, Arthrobacter histidinolovorans) MKIGCHGLVWTGRFDAEGIRYSVQKTKEAGFDLIEFPLMDPFSFDVATAKSALAEHGLTASASLGLSEATDVSSEDPAIVKAGEELLNRALDVLAELGATEFCGVIYSAMKKYMEPATEQGLSNSKAAIGRVVDRAAGLGINVSLEVVNRYETNVLNTGRQALSYLSDVKRPNLGVHLDTYHMNIEESDMFSPVLDTAEALKYVHIGESHRGYLGTGSVDFDNFFKALGRIGYDGPVVFESFSSAVVAPDLSRMLGIWRNLWADNEELGAHANAFIRDKLTAIKTIELH | 61.9 | 1.64
8 | Ketose 3-epimerase mutant 26: amino acid-substituted mutant of SEQ ID NO: 1 (protein, Arthrobacter histidinolovorans) MKIGCHGLVWTGRFDAEGIRYSVQKTKEAGFDLIEFPLMDPFSFDVATAKSALAEHGLTASASLGLSEATDVSSEDPAIVKAGEELLNRALDVLAEMGATDFCGVIYSAMKKYMEPATEQGLSNSKAAVGRVVDRAAGLGINVSLEVVNRYETNVLNTGRQALSYLSDVKRPNLGVHLDTYHMNIEESDMFSPVLDTAEALKYVHIGESHRGYLGTGSVDFDNFFKALGRIGYDGPVVFESFSSAVVAPDLSRMLGIWRNLWADNEELGAHANAFIRDKLTAIKTIELH | 68.9 | 1.65
9 | Ketose 3-epimerase mutant 23: amino acid-substituted mutant of SEQ ID NO: 1 (protein, Arthrobacter histidinolovorans) MKIGCHGLVWTGRFDAEGIRYSVQKTKEAGFDLIEFPLMDPFSFDVATAKSALAEHGLTASASLGLSEATDVSSEDPAIVKAGEELLNRALDVLAELGATDFCGVIYSAMKKYMEPATEQGLSNSKAAVGRVVDRAAGLGINVSLEVVNRYETNVLNTGRQALSYLSDVKRGNLGVHLDTYHMNIEESDMFSPVLDTAEALKYVHIGESHRGYLGTGSVDFDNFFKALGRIGYDGPVVFESFSSAVVAPDLSRMLGIWRNLWADNEELGAHANAFIRDKLTAIKTIELH | 65.8 | 1.69
10 | Ketose 3-epimerase mutant 24: amino acid-substituted mutant of SEQ ID NO: 1 (protein, Arthrobacter histidinolovorans) MKIGCHGLVWTGRFDAEGIRYSVQKTKEAGFDLIEFPLMDPFSFDVATAKSALAEHGLTASASLGLSEATDVSSEDPAIVKAGEELLNRALDVLAELGATDFCGVIYSAMKKYMEPATEQGLSNSKAAVGRVVDRAAGLGINVSLEVVNRYETNVLNTGRQALSYLQDVKRPNLGVHLDTYHMNIEESDMFSPVLDTAEALKYVHIGESHRGYLGTGSVDFDNFFKALGRIGYDGPVVFESFSSAVVAPDLSRMLGIWRNLWADNEELGAHANAFIRDKLTAIKTIELH | 55.4 | 1.68
11 | Ketose 3-epimerase mutant 20: amino acid-substituted mutant of SEQ ID NO: 1 (protein, Arthrobacter histidinolovorans) MKIGCHGLVWTGRFDAEGIRYSVQKTKEAGFDLIEFPLMDPFSFDVATAKSALAEHGLSVSASLGLSEATDVSSEDPAIVKAGEELLNRALDVLAELGATDFCGVIYSAMKKYMEPATEQGLSNSKAAIGRVVDRAAGLGINVSLEVVNRYETNVLNTGRQALSYLSDVKRPNLGVHLDTYHMNIEESDMFSPVLDTAEALKYVHIGESHRGYLGTGSVDFDNFFKALGRIGYDGPVVFESFSSAVVAPDLSRMLGIWRNLWADNEELGAHANAFIRDKLTAIKTIELH | 52.1 | 1.79
